T1: HA-γ134.5 (HSV-1, UniProt P08353 1-263)
T1 sequence: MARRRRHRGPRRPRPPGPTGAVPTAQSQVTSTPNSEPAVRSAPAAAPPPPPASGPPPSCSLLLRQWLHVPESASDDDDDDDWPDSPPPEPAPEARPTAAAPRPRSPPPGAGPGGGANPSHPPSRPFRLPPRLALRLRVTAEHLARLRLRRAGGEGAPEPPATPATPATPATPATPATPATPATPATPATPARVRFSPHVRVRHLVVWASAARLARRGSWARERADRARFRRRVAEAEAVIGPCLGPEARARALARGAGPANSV

T2: TBK1 (as used in Example 6; construct not named) (Homo sapiens (Human), UniProt Q9UHD2 1-729)
T2 construct: also called HA-TBK1 (constructed, probably the one used)
T2 sequence: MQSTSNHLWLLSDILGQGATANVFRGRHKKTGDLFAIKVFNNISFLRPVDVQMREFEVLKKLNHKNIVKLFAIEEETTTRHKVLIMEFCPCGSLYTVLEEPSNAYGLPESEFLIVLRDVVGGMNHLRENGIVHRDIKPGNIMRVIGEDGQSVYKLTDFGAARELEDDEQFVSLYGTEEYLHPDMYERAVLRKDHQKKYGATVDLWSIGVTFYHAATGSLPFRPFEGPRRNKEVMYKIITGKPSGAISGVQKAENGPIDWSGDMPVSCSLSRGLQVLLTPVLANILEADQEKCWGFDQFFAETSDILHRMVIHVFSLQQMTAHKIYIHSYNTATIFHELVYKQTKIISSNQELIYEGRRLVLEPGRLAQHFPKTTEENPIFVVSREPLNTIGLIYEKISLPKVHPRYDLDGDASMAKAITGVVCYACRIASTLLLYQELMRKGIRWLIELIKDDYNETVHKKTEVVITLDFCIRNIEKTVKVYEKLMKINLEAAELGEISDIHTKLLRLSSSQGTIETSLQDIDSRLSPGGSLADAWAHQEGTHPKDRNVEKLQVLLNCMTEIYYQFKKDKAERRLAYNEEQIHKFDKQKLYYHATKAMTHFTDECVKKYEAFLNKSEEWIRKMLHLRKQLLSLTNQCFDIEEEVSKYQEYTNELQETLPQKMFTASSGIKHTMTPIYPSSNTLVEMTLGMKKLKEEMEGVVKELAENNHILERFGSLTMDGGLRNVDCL


Experiments:
HA-γ134.5 = molecular target: T1, HA-γ134.5; experiment: co-immunoprecipitation from transfected 293T cells
[1] = molecular target: T2, TBK1 (as used in Example 6; construct …); experiment: co-immunoprecipitation from transfected 293T cells

Binder | binding result (HA-γ134.5) | binding result [1]
FLAG-dN200, a truncated form of Ebola VP35 (other, also called control protein dN200) NNLNSTTSLTEENFGKPDISAKDLRNIMYDHLPGFGTAFHQLVQVICKLGKDSNSLDIIHAEFQASLAEGDSPQCALIQITKRVPIFQDAAPPVIHIRSRGDIPRACQKSLRPVPPSPKIDRGWVCVFQLQDGKTLGLKI | no binding | –
FLAG-γ134.5 Δ106 (other, the printed limits overlap with the neighbouring deletions, so the exact junction is uncertain) MARRRRHRGPRRPRPPGPTGAVPTAQSQVTSTPNSEPAVRSAPAAAPPPPPASGPPPSCSLLLRQWLHVPEPPGAGPGGGANPSHPPSRPFRLPPRLALRLRVTAEHLARLRLRRAGGEGAPEPPATPATPATPATPATPATPATPATPATPATPARVRFSPHVRVRHLVVWASAARLARRGSWARERADRARFRRRVAEAEAVIGPCLGPEARARALARGAGPANSV | – | no binding
